Tests used:
[1] = target: T1, 2x syn. clamp (two-PDZ clamp, nc=2); assay: cell-based or functional assay
T1 chain: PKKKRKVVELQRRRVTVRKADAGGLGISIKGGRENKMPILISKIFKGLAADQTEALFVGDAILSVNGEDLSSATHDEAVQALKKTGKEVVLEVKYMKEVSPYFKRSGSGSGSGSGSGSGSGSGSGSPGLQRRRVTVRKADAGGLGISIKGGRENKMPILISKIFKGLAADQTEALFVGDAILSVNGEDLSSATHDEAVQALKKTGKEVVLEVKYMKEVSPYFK

[2] = target: T2, 3x syn. clamp (three-PDZ clamp, nc=3); assay: cell-based or functional assay
T2 chain: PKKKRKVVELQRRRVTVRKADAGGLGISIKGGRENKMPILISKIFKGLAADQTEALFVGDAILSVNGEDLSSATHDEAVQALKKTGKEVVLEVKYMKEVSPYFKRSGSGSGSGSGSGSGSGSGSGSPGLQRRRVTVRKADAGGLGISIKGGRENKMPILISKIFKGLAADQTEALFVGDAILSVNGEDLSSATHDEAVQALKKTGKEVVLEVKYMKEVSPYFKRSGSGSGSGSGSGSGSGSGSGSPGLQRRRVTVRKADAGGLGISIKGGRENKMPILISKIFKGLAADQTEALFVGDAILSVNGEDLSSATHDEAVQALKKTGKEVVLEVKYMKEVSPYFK

B1: MBP-43-8(low)-syn. lig.(S5), ligand VKESLV (other, not shown: large carriers)
chain: GEAPFQCRICMANFSRQDRLDRHTRTHTGEKPFQCRICMANFSQKEHLAGHLRTHTGEKPFQCRICMANFSRRDNLNRHLKTHLRGSGSGVKESLV
[1]
  EC50 of synTF titration on nc=2 DBM oligo probe (fluorescence anisotropy) in the presence of clamp: 18 nM
[2]
  EC50 of synTF titration on nc=3 DBM oligo probe (fluorescence anisotropy) in the presence of three-PDZ clamp: 5.1 nM

From patent US20230313215A1 (published 2023)
